{"source": "patent US20110159037A1", "key": {"Ro (SSA)": {"biological_target": "Ro (SSA)", "test": "Luminex AtheNA Multi-Lyte ANA Test, 0.15 µg mab per test"}, "[1]": {"biological_target": "Centromere B (Homo sapiens (Human)) (UniProt P07199)", "test": "Luminex AtheNA Multi-Lyte ANA Test, 0.15 µg mab per test"}, "Histones": {"biological_target": "Histones", "test": "Luminex AtheNA Multi-Lyte ANA Test, 0.15 µg mab per test"}, "[2]": {"biological_target": "HIV-1 envelope gp41 (virus of the PBMC neutralization assay) (HIV-1, isolate not stated)"}}, "data": [{"substance": "soluble HIV-1 Env gp140 oligomers (CON-S)", "values": [{"measurement": "IC50", "setting": "Mab 4E10", "value": 145, "unit": "nM"}]}, {"substance": "Mab 4E10 (antibody)", "values": [{"measurement": "relative units (relative units based on a standard curve)", "setting": "Ro (SSA)", "value": 221}]}, {"substance": "IgG1b12 (antibody)", "values": [{"measurement": "relative units (relative units based on a standard curve)", "setting": "[1]", "value": 479}, {"measurement": "relative units (relative units based on a standard curve)", "setting": "Histones", "value": 185}]}, {"substance": "A32 (antibody)", "values": [{"measurement": "relative units (relative units based on a standard curve)", "setting": "[1]", "value": 1130}]}, {"substance": "Mab 2F5 (antibody)", "values": [{"measurement": "relative units (relative units based on a standard curve)", "setting": "Ro (SSA)", "value": 290}, {"measurement": "relative units (relative units based on a standard curve)", "setting": "[1]", "value": 1780}, {"measurement": "relative units (relative units based on a standard curve)", "setting": "Histones", "value": 1010}, {"measurement": "HIV Neutralization ID50 In PBMC assay", "setting": "[2]", "value": 1, "unit": "µg/mL"}]}, {"substance": "13H11 (antibody)", "values": [{"measurement": "HIV Neutralization ID50 In PBMC assay", "setting": "[2]", "value": "> 50", "unit": "µg/mL"}]}, {"substance": "98-6 (antibody)", "values": [{"measurement": "HIV Neutralization ID50 In PBMC assay", "setting": "[2]", "value": 3.5, "unit": "µg/mL"}]}]}
